Data on five molecules can be found in patent US20150191546A1 (University of Texas, published 2015).

The term Kd denotes the constant that tells how readily two partners part at equilibrium. As a reminder, the EC50 (read off the curve) is the midpoint of the concentration-response curve. The EC50 is the midpoint of the concentration-response curve.

For assay [1], the target named is T1, PR1/HLA-A*0201 on the cell surface (human).
T1 construct: also called PR1-pulsed T2 cells; PR1/HLA-A2 on HLA-A2+ AML blasts
The experiment in a line: flow cytometry, 8F4 staining of MDA-MB-231 cells after 24 h with NE. For orientation: A flow cytometer gives signals particle by particle.
Experimental: (§1) Mean 6 SEM fold increase of the MFI of PR1/HLA-A2 versus unpulsed cells is shown from duplicate experiments. ANOVA followed by Tukey test was performed using Prism 5.0 software (*p=0.01, **p, 0.0001).

Assay [2] has as its target T1, PR1/HLA-A*0201 on the cell surface. As to the kind of experiment: flow cytometry, 8F4 staining of MDA-MB-231 cells after 24 h with P3.
Experimental: as §1
The target in assay [3] is T2, recombinant PR1/HLA-A*0201 monomer (human).
T2 construct: Folded recombinant monomer; also called PR1/HLA-A2; PR-1/HLA-A2
The experiment in a line: SPR (Biacore), 8F4 immobilized/captured, soluble PR1/HLA-A*0201 as analyte. Background: Surface plasmon resonance follows binding to a sensor surface in real time, without labels.

Assay [4] deals with T2, recombinant PR1/HLA-A*0201 monomer. As to the kind of experiment: SPR (BIAcore 3000), antibody captured on anti-mouse surface, peptide/HLA-A2 as analyte, 25 C; inset table, column KD (the text and the box under the plot round it to 9.9 nM).
Experimental: The test antibodies were captured onto anti-mouse antibody-coated surfaces. The analyte, peptide/HLA-A2, was diluted to 100 nM and tested in duplicate for binding to the antibody-coated surfaces. The analysis was performed at 25 C using PBS, 0.005% Tween-20, 0.1 mg/ml BSA, pH 7.4 as the running buffer.
Assay [5] shares this target. As to the kind of experiment: ELISA on PR1/HLA-A2 monomer-coated plate, anti-human detection [panel B]. A general note: An ELISA detects its analyte on a solid surface through an enzyme-linked reagent.
Text: (§2) The inventors used recombinant PR1/HLA-A2 monomer-coated plates to capture the antibody, and anti-human antibodies were used in a colorimetric assay to determine the bound fraction by optical density (OD).
Assay [6] shares this target. The experiment in a line: ELISA, biotinylated PR1/HLA-A2 on streptavidin, anti-human kappa HRP.
Experimental: An ELISA plate was first coated with 100 μl/well of 5 μg/ml streptavidin (Jackson ImmunoResearch, West Grove, Pa.) in PBS. After washing wells with Wash Buffer (PBS containing 0.05% Tween 20) and blocking with Block Buffer, 50 μl/well of 2 μg/ml biotinylated PR1/HLA-A2, which had been provided by Dr. Molldrem, was added. After 30 min incubation at room temperature, the ELISA plate was washed with Wash Buffer. […] After incubating the ELISA plate for 1 hr at room temperature and washing with Wash Buffer, bound antibodies were detected using 100 μl/well of 1/2,000-diluted HRP-conjugated goat anti-human kappa chain polyclonal antibody. After incubating for 30 min at room temperature and washing with Wash Buffer, color development was performed by adding 100 μl/well of ABTS substrate. Color development was stopped by adding 100 μl/well of 2% oxalic acid. Absorbance was read at 405 nm.
The target is the same in assay [7]. The experiment in a line: ELISA on recombinant PR1/HLA-A2 monomer-coated plates; Hu8F4-2 (Hu2).
Text: as §2
Assay [8] shares this target. As to the kind of experiment: ELISA on recombinant PR1/HLA-A2 monomer-coated plates; Hu8F4-1 (Hu1).
Text: as §2

B1: 8F4 mouse monoclonal antibody (IgG2a-kappa, anti-PR1/HLA-A*0201) (antibody, V domains shown)
VH: EVQLVESGGDLVKPGGSLKLSCAASGFTFSGYGMSWVRQTPDKRLEWVATISSGGSYTYYPDSVKGRFTISRDNAKNTLYLQMSSLKSEDTAMYYCARHEGGYYGSSPAWFVYWGQGTLVTLSA
VL: DIVMTQSHKFMSTSVGDRVSITCKASQDVSTAVAWYQQKPGQSPKLLIYSTSYRYTGVPDRFTGSGSGTVFTFTINSVQAEDLAVYYCQQHFITPPTFGGGTKLEIK
modifications: In the flow cytometry and confocal assays the antibody carried an Alexa Fluor 647 label; the letters do not carry it.
notes: Mouse IgG2a-kappa from hybridoma; Used with Alexa-647 label in flow cytometry and confocal assays; also called mouse 8F4; 8F4-4
For B1, the “fold increase in PR1/HLA-A2 (8F4 MFI) versus unpulsed cells” value amounted to 2.5 fold in assay [1] and 3 fold in assay [2]. Moreover, the Kd in assay [3] turned out to be 9.9 nM; in assay [4], 9.85 nM.

B2: Ch8F4 chimeric 8F4 IgG1/kappa antibody (antibody, V domains shown)
VH: B1 VH
VL: DIVMTQSHKFMSTSVGDRVSITCKASQDVSTAVAWYQQKPGQSPKLLIYSTSYRYTGVPDRFTGSGSGTVFTFTINSVQAEDLAVYYCQQHFITPPTFGGGTKLEIKR
notes: Mouse 8F4 VH/VL on human gamma-1 and kappa constant regions
On to B2, for which the “EC50 (read off the curve)” value in assay [5] is about 0.008 µg/mL. Also, the EC50 in assay [6] worked out at 0.054 µg/mL.

B3: Hu8F4-2 humanized 8F4 IgG1/kappa antibody (Hu8F4 VH and VL2) (antibody)
heavy: not shown
light: DIQMTQSPSSLSASVGDRVTITCKASQDVSTAVAWYQQKPGKAPKLLIYSTSYRYTGVPSRFSGSGSGTDFTFTISSLQPEDIATYYCQQHFITPPTFGGGTKVEIKRTVAAPSVFIFPPSDEQLKSGTASVVCLLNNFYPREAKVQWKVDNALQSGNSQESVTEQDSKDSTYSLSSTLTLSKADYEKHKVYACEVTHQGLSSPVTKSFNRGEC
notes: VL2 has Asp instead of Val at position 70 of VL1; also called Hu2-8F4; Hu2
Turning to B3, in assay [7], the Kd was determined as 7.8 nM. Moreover, in assay [5], the “EC50 (read off the curve)” value was about 0.008 µg/mL. The EC50 in assay [6] was 0.07 µg/mL.

B4: Hu8F4-1 humanized 8F4 IgG1/kappa antibody (Hu8F4 VH and VL1) (antibody, V domains shown)
VH: EVQLVESGGGLVQPGGSLRLSCAASGFTFSGYGMSWVRQAPGKGLEWVATISSGGSYTYYPDSVKGRFTISRDNAKNSLYLQMNSLRAEDTAVYYCARHEGGYYGSSPAWFVYWGQGTMVTVSS
VL: DIQMTQSPSSLSASVGDRVTITCKASQDVSTAVAWYQQKPGKAPKLLIYSTSYRYTGVPSRFSGSGSGTVFTFTISSLQPEDIATYYCQQHFITPPTFGGGTKVEIKR
notes: Human IgG1/kappa; also called Hu1-8F4; Hu1
B4: the Kd in assay [8] was found to be 7.7 nM. For the same molecule, in assay [5], the “EC50 (read off the curve)” value is about 0.008 µg/mL. For the same molecule, in assay [6], the EC50 stood at 0.05 µg/mL.

B5: Hu8F4-2-AA humanized 8F4 IgG1-AA/kappa antibody (antibody)
heavy: not shown
light: B3 light
notes: Hu8F4 VH and VL2 on human IgG1 with Leu234Ala and Leu235Ala (Eu numbering); Signal peptide may be included
Consider B5, for which, in assay [6], the EC50 came out at 0.07 µg/mL.
